Test results from paper PMC8878330 (Molecules, 2022).

What was measured:
[1] = test system: CO/N=C(\C(=O)N[C@@H]1C(=O)N2C(C(=O)O)=C(COC(C)=O)CS[C@H]12)c1csc(N)n1; assay: steady-state hydrolysis kinetics with purified NDM-1 (Km); format: biochemical, Klebsiella pneumoniae; settings: Zn2+ (two Zn ions)
[2] = test system: CC1(C)S[C@@H]2[C@H](NC(=O)[C@H](N)c3ccccc3)C(=O)N2[C@H]1C(=O)O; assay: as above; format: biochemical, Klebsiella pneumoniae; settings: Zn2+ (two Zn ions)
[3] = test system: C[C@@H](O)[C@H]1C(=O)N2C(C(=O)O)=C(SCCN=CN)C[C@H]12; assay: as above; format: biochemical, Klebsiella pneumoniae; settings: Zn2+ (two Zn ions)
[4] = test system: C[C@@H](O)[C@H]1C(=O)N2C(C(=O)O)=C(S[C@@H]3CN[C@H](C(=O)N(C)C)C3)[C@H](C)[C@H]12; assay: as above; format: biochemical, Klebsiella pneumoniae; settings: Zn2+ (two Zn ions)
[5] = target: T1, New Delhi metallo-β-lactamase-1 (NDM-1) (Klebsiella pneumoniae, UniProt C7C422); assay: biochemical
T1 construct: gene blaNDM-1

[6] = target: T1, New Delhi metallo-β-lactamase-1 (NDM-1); assay: steady-state hydrolysis kinetics with purified NDM-1 (Km); format: biochemical

T1 sequence (C7C422 29-270 limits assumed): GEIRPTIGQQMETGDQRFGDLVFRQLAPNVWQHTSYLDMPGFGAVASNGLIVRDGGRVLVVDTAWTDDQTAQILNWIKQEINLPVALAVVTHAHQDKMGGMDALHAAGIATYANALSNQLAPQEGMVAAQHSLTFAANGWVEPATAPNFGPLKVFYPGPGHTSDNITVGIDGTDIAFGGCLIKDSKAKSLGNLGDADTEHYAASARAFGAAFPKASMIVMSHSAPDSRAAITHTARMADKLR

For “New Delhi metallo-β-lactamase-1 (NDM-1) (Klebsiella pneumoniae)”, the Km [1] was 54.8 ± 3.7 µM, the Vmax [1] was 45.1 µM/min and the kcat [1] was 375 ± 17.5 s⁻¹. For the same molecule, the kcat/Km [1] was 6.85e+06 ± 560000 M⁻¹ s⁻¹, the Km [2] was 96.5 ± 3.1 µM and the Vmax [2] was 44.9 µM/min. For the same molecule, the kcat [2] was 375 ± 14.3 s⁻¹, the kcat/Km [2] was 3.88e+06 ± 190000 M⁻¹ s⁻¹ and the Km [3] was 75.9 ± 2.9 µM. The Vmax [3] was 91 µM/min, the kcat [3] was 758 ± 18.6 s⁻¹ and the kcat/Km [3] was 9.99e+06 ± 450000 M⁻¹ s⁻¹. The Km [4] was 52.8 ± 3.4 µM, the Vmax [4] was 38.6 µM/min and the kcat [4] was 322 ± 11.7 s⁻¹. The kcat/Km [4] was 6.1e+06 ± 450000 M⁻¹ s⁻¹.
In the case of `O=P(O)(O)C(O)(Cc1cccnc1)P(=O)(O)O` [risedronate], the IC50 [5] is reported as 24.6 µM.
With `O=C(Cc1cccs1)N[C@@H]1C(=O)N2C(C(=O)O)=C(/C=C/c3ccc([N+](=O)[O-])cc3[N+](=O)[O-])CS[C@H]12` [nitrocefin] the Km [6] was 23.2 ± 1.7 µM.
